# From patent US20060211075A1, “Enzyme sensors including environmentally sensitive or fluorescent labels and uses thereof” (The Albert Einstein College of Medicine of Yeshiva …, priority 2005, published 2006)
# Tests used:
# [1] = molecular target: GST-Lck-SH2 (UniProt P06239); test: fluorescence change on Src-catalysed phosphorylation in presence of GST-Lck-SH2 (1.25 µM peptide, 5 µM Lck-SH2, 12 nM Src, 1 mM ATP)
# [2] = molecular target: GST-Lck-SH2 (UniProt P06239); test: fluorescence change on Src-catalysed phosphorylation in presence of GST-Lck-SH2; value in parentheses, amide-capped peptide 13
# [3] = molecular target: GST-Lck-SH2 (UniProt P06239); test: fluorescence change on Src-catalysed phosphorylation in presence of GST-Lck-SH2; value in parentheses, amide-capped peptide 14
# [4] = molecular target: GST-Lck-SH2 (UniProt P06239); test: fluorescence change on Src-catalysed phosphorylation in presence of GST-Lck-SH2 (1.25 µM peptide, 5 µM Lck-SH2, 12 nM Src, 1 mM ATP); library peptide with -NH(CH2)2SH
# [5] = tested on: T1, CC[C@H](C)[C@H](NC(=O)[C@H](CCC(=O)O)NC(=O)[C@H](CNc1ccc([N+](=O)[O-])c2nonc12)NC(=O)[C@H](Cc1ccc(O)cc1)NC(=O)[C@@H](NC(=O)[C@H](CCC(=O)O)NC(=O)[C@H](CCC(=O)O)NC(=O)[C@H](CCC(=O)O)NC(C)=O)[C@@H](C)CC)C(=O)N[C@@H](CCC(=O)O)C(=O)N[C@@H](C)C(N)=O; test: purified protein, by the assay type; assay type: biochemical; conditions: other: Src kinase; Lck-SH2 20 μM; varying peptide; pH 7.5; 30.0 °C
# T1 construct: purchased Invitrogen
# Description: The fluorescence change was monitored as a function of time. Control assays in the absence of Lck-SH2 were also performed.
# The final Src concentration was 30 nM for peptide 13 and 15 nM for peptide 14.
# [6] = molecular target: phosphotyrosine version of peptide 13, Ac-Glu-Glu-Glu-Ile-pTyr-Dap(NBD)-Glu-Ile-Glu-Ala-amide; test: Src phosphorylation of 16 µM peptide 13 at 16 µM Lck-SH2, fluorescence
# [7] = molecular target: phosphorylated peptide 14, Ac-Glu-Glu-Glu-Ile-pTyr-Gly-Glu-Ile-Dab(dapoxyl)-Ala-amide; test: Src phosphorylation of 8 µM peptide 14 at 0.2 µM Lck-SH2, fluorescence
# [8] = molecular target: phosphotyrosine version of peptide 13, Ac-Glu-Glu-Glu-Ile-pTyr-Dap(NBD)-Glu-Ile-Glu-Ala-amide; test: fluorescence titration: Src-phosphorylated peptide 13 fixed at 16 µM, GST-Lck-SH2 varied, nonlinear regression
# [9] = molecular target: phosphorylated peptide 14, Ac-Glu-Glu-Glu-Ile-pTyr-Gly-Glu-Ile-Dab(dapoxyl)-Ala-amide; test: Src phosphorylation of 8 µM peptide 14 at 4 µM Lck-SH2, fluorescence
# [10] = molecular target: phosphorylated peptide 14, Ac-Glu-Glu-Glu-Ile-pTyr-Gly-Glu-Ile-Dab(dapoxyl)-Ala-amide; test: Src phosphorylation of 8 µM peptide 14 at 16 µM Lck-SH2, fluorescence
# [11] = molecular target: phosphorylated peptide 14, Ac-Glu-Glu-Glu-Ile-pTyr-Gly-Glu-Ile-Dab(dapoxyl)-Ala-amide; test: Src phosphorylation of 8 µM peptide 14 at 8 µM Lck-SH2, fluorescence
# [12] = molecular target: phosphorylated peptide 14, Ac-Glu-Glu-Glu-Ile-pTyr-Gly-Glu-Ile-Dab(dapoxyl)-Ala-amide; test: Src phosphorylation of 8 µM peptide 14 at 20 µM Lck-SH2, fluorescence
# [13] = molecular target: phosphorylated peptide 14, Ac-Glu-Glu-Glu-Ile-pTyr-Gly-Glu-Ile-Dab(dapoxyl)-Ala-amide; test: Src phosphorylation of 8 µM peptide 14 at 26 µM Lck-SH2, fluorescence
# [14] = molecular target: phosphotyrosine version of peptide 13, Ac-Glu-Glu-Glu-Ile-pTyr-Dap(NBD)-Glu-Ile-Glu-Ala-amide; test: Src phosphorylation of 16 µM peptide 13 at 32 µM Lck-SH2, fluorescence
# [15] = molecular target: phosphotyrosine version of peptide 13, Ac-Glu-Glu-Glu-Ile-pTyr-Dap(NBD)-Glu-Ile-Glu-Ala-amide; test: Src phosphorylation of 16 µM peptide 13 at 0 µM Lck-SH2 (baseline point of the titration)
# [16] = molecular target: phosphotyrosine version of peptide 13, Ac-Glu-Glu-Glu-Ile-pTyr-Dap(NBD)-Glu-Ile-Glu-Ala-amide; test: Src phosphorylation of 16 µM peptide 13 at 8 µM Lck-SH2, fluorescence
# [17] = molecular target: phosphotyrosine version of peptide 13, Ac-Glu-Glu-Glu-Ile-pTyr-Dap(NBD)-Glu-Ile-Glu-Ala-amide; test: Src phosphorylation of 16 µM peptide 13 at 26 µM Lck-SH2, fluorescence
# [18] = molecular target: phosphorylated peptide 14, Ac-Glu-Glu-Glu-Ile-pTyr-Gly-Glu-Ile-Dab(dapoxyl)-Ala-amide; test: Src phosphorylation of 8 µM peptide 14 at 12 µM Lck-SH2, fluorescence
# [19] = molecular target: phosphotyrosine version of peptide 13, Ac-Glu-Glu-Glu-Ile-pTyr-Dap(NBD)-Glu-Ile-Glu-Ala-amide; test: Src phosphorylation of 16 µM peptide 13 at 20 µM Lck-SH2, fluorescence
# [20] = molecular target: phosphorylated peptide 14, Ac-Glu-Glu-Glu-Ile-pTyr-Gly-Glu-Ile-Dab(dapoxyl)-Ala-amide; test: Src phosphorylation of 8 µM peptide 14 at 2 µM Lck-SH2, fluorescence
# [21] = molecular target: phosphotyrosine version of peptide 13, Ac-Glu-Glu-Glu-Ile-pTyr-Dap(NBD)-Glu-Ile-Glu-Ala-amide; test: Src phosphorylation of 16 µM peptide 13 at 12 µM Lck-SH2, fluorescence
# [22] = molecular target: phosphorylated peptide 14, Ac-Glu-Glu-Glu-Ile-pTyr-Gly-Glu-Ile-Dab(dapoxyl)-Ala-amide; test: Src phosphorylation of 8 µM peptide 14 at 32 µM Lck-SH2, fluorescence
# [23] = molecular target: phosphotyrosine version of peptide 13, Ac-Glu-Glu-Glu-Ile-pTyr-Dap(NBD)-Glu-Ile-Glu-Ala-amide; test: Src phosphorylation of 16 µM peptide 13 at 4 µM Lck-SH2, fluorescence
# GST-Lck-SH2, sequence (P06239 127-224): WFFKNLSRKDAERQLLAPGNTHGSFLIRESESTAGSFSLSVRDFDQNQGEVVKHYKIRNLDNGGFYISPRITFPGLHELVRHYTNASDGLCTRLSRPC
substance,measurement,setting,value
Src-phosphorylated library peptide with Dab-7 (Cascade Yellow on Dab) at P+2 of Ac-Glu-Glu-Glu-Ile-Tyr-Gly-Glu-Ile-Glu-Ala,Fold change in fluorescence intensity,[1],1.7 fold
Src-phosphorylated library peptide with Dab-5 (dapoxyl on Dab) at P+3 of Ac-Glu-Glu-Glu-Ile-Tyr-Gly-Glu-Ile-Glu-Ala,Fold change in fluorescence intensity,[1],3.6 fold
"phosphotyrosine version of peptide 13, Ac-Glu-Glu-Glu-Ile-pTyr-Dap(NBD)-Glu-Ile-Glu-Ala-amide",Fold change in fluorescence intensity,[2],1.6 fold
Src-phosphorylated library peptide with Dap-7 (Cascade Yellow on Dap) at P+4 of Ac-Glu-Glu-Glu-Ile-Tyr-Gly-Glu-Ile-Glu-Ala,Fold change in fluorescence intensity,[1],1.4 fold
Src-phosphorylated library peptide with Dab-6 (NBD on Dab) at P+1 of Ac-Glu-Glu-Glu-Ile-Tyr-Gly-Glu-Ile-Glu-Ala,Fold change in fluorescence intensity,[1],1.3 fold
Src-phosphorylated library peptide with Dap-5 (dapoxyl on Dap) at P+3 of Ac-Glu-Glu-Glu-Ile-Tyr-Gly-Glu-Ile-Glu-Ala,Fold change in fluorescence intensity,[1],3.3 fold
Src-phosphorylated library peptide with Dap-7 (Cascade Yellow on Dap) at P+2 of Ac-Glu-Glu-Glu-Ile-Tyr-Gly-Glu-Ile-Glu-Ala,Fold change in fluorescence intensity,[1],1.8 fold
Src-phosphorylated library peptide with Dap-6 (NBD on Dap) at P+3 of Ac-Glu-Glu-Glu-Ile-Tyr-Gly-Glu-Ile-Glu-Ala,Fold change in fluorescence intensity,[1],1.3 fold
Src-phosphorylated library peptide with Dab-6 (NBD on Dab) at P+2 of Ac-Glu-Glu-Glu-Ile-Tyr-Gly-Glu-Ile-Glu-Ala,Fold change in fluorescence intensity,[1],1.4 fold
"phosphorylated peptide 14, Ac-Glu-Glu-Glu-Ile-pTyr-Gly-Glu-Ile-Dab(dapoxyl)-Ala-amide",Fold change in fluorescence intensity,[3],7.2 fold
Src-phosphorylated library peptide with Dab-5 (dapoxyl on Dab) at P+2 of Ac-Glu-Glu-Glu-Ile-Tyr-Gly-Glu-Ile-Glu-Ala,Fold change in fluorescence intensity,[1],1.6 fold
Src-phosphorylated library peptide with Dab-7 (Cascade Yellow on Dab) at P+4 of Ac-Glu-Glu-Glu-Ile-Tyr-Gly-Glu-Ile-Glu-Ala,Fold change in fluorescence intensity,[1],1.6 fold
Src-phosphorylated library peptide with Dab-7 (Cascade Yellow on Dab) at P+1 of Ac-Glu-Glu-Glu-Ile-Tyr-Gly-Glu-Ile-Glu-Ala,Fold change in fluorescence intensity,[1],1.5 fold
Src-phosphorylated library peptide with Dap-5 (dapoxyl on Dap) at P+2 of Ac-Glu-Glu-Glu-Ile-Tyr-Gly-Glu-Ile-Glu-Ala,Fold change in fluorescence intensity,[1],2.4 fold
Src-phosphorylated library peptide with Dap-6 (NBD on Dap) at P+1 of Ac-Glu-Glu-Glu-Ile-Tyr-Gly-Glu-Ile-Glu-Ala,Fold change in fluorescence intensity,[4],1.6 fold
Src (Homo sapiens),Km,[5],32 ± 0.5 µM
same,Vmax,[5],1.4 ± 0.1 µmol/min/mg
Src-phosphorylated library peptide with Dab-5 (dapoxyl on Dab) at P+1 of Ac-Glu-Glu-Glu-Ile-Tyr-Gly-Glu-Ile-Glu-Ala,Fold change in fluorescence intensity,[1],2.4 fold
Src-phosphorylated library peptide with Dab-5 (dapoxyl on Dab) at P+4 of Ac-Glu-Glu-Glu-Ile-Tyr-Gly-Glu-Ile-Glu-Ala,Fold change in fluorescence intensity,[4],4.1 fold
GST-Lck-SH2 (from UniProt P06239 127-224),Fluorescence Increase (fold change),[6],1.52 fold
same,Fluorescence Increase (fold change),[7],1.07 fold
same,Kd,[8],2100 nM
same,Fluorescence Increase (fold change),[9],2.32 fold
same,Fluorescence Increase (fold change),[10],6.2 fold
same,Fluorescence Increase (fold change),[11],4.31 fold
same,Fluorescence Increase (fold change),[12],6.85 fold
same,Fluorescence Increase (fold change),[13],7.32 fold
same,Fluorescence Increase (fold change),[14],1.59 fold
same,Fluorescence Increase (fold change),[15],1.07 fold
same,Fluorescence Increase (fold change),[16],1.33 fold
same,Fluorescence Increase (fold change),[17],1.61 fold
same,Fluorescence Increase (fold change),[18],5.34 fold
same,Fluorescence Increase (fold change),[19],1.56 fold
same,Fluorescence Increase (fold change),[20],1.7 fold
same,Fluorescence Increase (fold change),[21],1.41 fold
same,Fluorescence Increase (fold change),[22],7.2 fold
same,Fluorescence Increase (fold change),[23],1.24 fold
Src-phosphorylated library peptide with Dap-7 (Cascade Yellow on Dap) at P+3 of Ac-Glu-Glu-Glu-Ile-Tyr-Gly-Glu-Ile-Glu-Ala,Fold change in fluorescence intensity,[1],1.6 fold
Src-phosphorylated library peptide with Dap-7 (Cascade Yellow on Dap) at P+1 of Ac-Glu-Glu-Glu-Ile-Tyr-Gly-Glu-Ile-Glu-Ala,Fold change in fluorescence intensity,[1],1.4 fold
Src-phosphorylated library peptide with Dab-6 (NBD on Dab) at P+4 of Ac-Glu-Glu-Glu-Ile-Tyr-Gly-Glu-Ile-Glu-Ala,Fold change in fluorescence intensity,[1],1.7 fold
Src-phosphorylated library peptide with Dap-5 (dapoxyl on Dap) at P+4 of Ac-Glu-Glu-Glu-Ile-Tyr-Gly-Glu-Ile-Glu-Ala,Fold change in fluorescence intensity,[1],2.3 fold
Src-phosphorylated library peptide with Dap-6 (NBD on Dap) at P+4 of Ac-Glu-Glu-Glu-Ile-Tyr-Gly-Glu-Ile-Glu-Ala,Fold change in fluorescence intensity,[1],1.3 fold
Src-phosphorylated library peptide with Dab-6 (NBD on Dab) at P+3 of Ac-Glu-Glu-Glu-Ile-Tyr-Gly-Glu-Ile-Glu-Ala,Fold change in fluorescence intensity,[1],1.9 fold
Src-phosphorylated library peptide with Dab-7 (Cascade Yellow on Dab) at P+3 of Ac-Glu-Glu-Glu-Ile-Tyr-Gly-Glu-Ile-Glu-Ala,Fold change in fluorescence intensity,[1],2.1 fold
